{"source": "patent US20260109776A1", "about": "(Amgen, published 2026)", "binders": {"B1": {"name": "soluble human CD40L (ligand, UniProt P29965 113-261, looked up)", "chain": "MQKGDQNPQIAAHVISEASSKTTSVLQWAEKGYYTMSNNLVTLENGKQLTVKRQGLYYIYAQVTFCSNREASSQAPFIASLCLKSPGRFERILLRAANTHSSAKPCGQQSIHLGGVFELQPGASVFVNVTDPSQVSHGTGFTSFGLLKL", "modifications": "fluorescent label in the ligand binding assay of Table 7"}}, "target": "human CD40 on cells (human, UniProt P25942 21-277)", "assay": "cell-based or functional assay", "data": [{"binder": "B1", "values": [{"measurement": "CD40L EC50, human B cell proliferation, no antibody", "value": 1.08, "unit": "ng/mL"}, {"measurement": "CD40L EC50, human B cell proliferation, with 1 ug/ml 4G7", "value": 1.04, "unit": "ng/mL"}, {"measurement": "CD40L EC50, human B cell proliferation, with 1 ug/ml 29H10", "value": 0.715, "unit": "ng/mL"}, {"measurement": "CD40L EC50, human B cell proliferation, with 1 ug/ml 30A12", "value": 0.81, "unit": "ng/mL"}, {"measurement": "CD40L EC50, human B cell proliferation, with 1 ug/ml 33H6", "value": 1.14, "unit": "ng/mL"}, {"measurement": "CD40L EC50, human B cell proliferation, with 1 ug/ml 35F11", "value": 6.66, "unit": "ng/mL"}, {"measurement": "CD40L EC50, human B cell proliferation, with 1 ug/ml 36F3", "value": 13, "unit": "ng/mL"}, {"measurement": "CD40L EC50, human B cell proliferation, with 1 ug/ml 37A6", "value": 1.39, "unit": "ng/mL"}, {"measurement": "CD40L EC50, human B cell proliferation, with 1 ug/ml 39C2", "value": 0.985, "unit": "ng/mL"}]}]}
